How the values were obtained:
Experiment in all cases: fluorescence polarization
[1] = biological target: Egr1/Zif268 ZnF1-3 (Homo sapiens) (UniProt P18146); settings: FP: 5 nM FAM-dsDNA, 300 mM NaCl (200 mM in Fig 4E), 20 mM Tris-HCl pH 7.5, 5% glycerol, 0.5 mM TCEP, 25 C, 10 min
[2] = tested on: WT1 ZnF2-4 (-KTS) (Homo sapiens), P19544-4; settings: FP: 5 nM FAM-dsDNA, 300 mM NaCl (200 mM in Fig 4E), 20 mM Tris-HCl pH 7.5, 5% glycerol, 0.5 mM TCEP, 25 C, 10 min; for Kd: 300 mM NaCl
[3] = biological target: WT1 ZnF2-4 +KTS isoform (Homo sapiens) (UniProt P19544); settings: FP: 5 nM FAM-dsDNA, 300 mM NaCl (200 mM in Fig 4E), 20 mM Tris-HCl pH 7.5, 5% glycerol, 0.5 mM TCEP, 25 C, 10 min
[4] = 5fC at C9 of strand 1, 5mC at C3 of strand 1 and C3, C9 of strand 2
[5] = 5hmC at C9 of strand 1, 5mC at C3 of strand 1 and C3, C9 of strand 2
[6] = 5hmC at C3 and C9 of strand 1, 5mC at C3 and C9 of strand 2
[7] = 5mC at C3 and C9 of strand 2 only
[8] = 5mC at C3 and C9 of both strands

Sequence of WT1 ZnF2-4 +KTS isoform (Homo sapiens) (P19544 350-440): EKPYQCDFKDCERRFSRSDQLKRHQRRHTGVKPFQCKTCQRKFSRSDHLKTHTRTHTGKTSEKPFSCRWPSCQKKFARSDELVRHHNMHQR
Sequence of WT1 ZnF2-4 (-KTS) (Homo sapiens), P19544-4 (P19544 other isoform, or with tags, fused parts or gaps): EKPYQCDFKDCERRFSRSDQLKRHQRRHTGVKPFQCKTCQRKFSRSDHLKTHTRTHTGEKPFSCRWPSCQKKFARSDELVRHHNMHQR

AGCGTGGGCGT / TACGCCCACGC [5caCx1]
Kd ([1]; 5caC at C9 of strand 1, 5mC at C3 of strand 1 and C3, C9 of strand 2): > 12000 nM | Kd ([2]; 2-fold stronger than 5mC, 5caC at C9 of strand 1, 5mC at C3 of strand 1 and C3, C9 of strand 2): 50 nM

AGCGTGGGCGT / TACGCCCACGC [5caCx2]
Kd ([2]; ~25-fold weaker than M/M, also printed as KD > 2.3 uM, 5caC at C3 and C9 of strand 1, 5mC at C3 and C9 of strand 2): 2300 nM

AGCGTGGGCGT / TACGCCCACGC [5fCx1]
binding signal (fold weaker than 5mC (M/M)) [1, 4]: 15 | binding signal (fold weaker than 5mC (M/M)) [2, 4]: 14

AGCGTGGGCGT / TACGCCCACGC [5fCx2]
binding signal (fold weaker than M/M) ([2]; 5fC at C3 and C9 of strand 1, 5mC at C3 and C9 of strand 2): 75

AGCGTGGGCGT / TACGCCCACGC [5hmCx1]
binding signal (fold weaker than 5mC (M/M)) [1, 5]: 3.6 | binding signal (fold weaker than 5mC (M/M)) [2, 5]: 4.5

AGCGTGGGCGT / TACGCCCACGC [5hmCx2]
binding signal (fold weaker than M/M) [1, 6]: 24 | binding signal (fold weaker than M/M) [2, 6]: 75

AGCGTGGGCGT / TACGCCCACGC [C/C]
binding signal (fold weaker than -KTS isoform) ([3]; none): 24 | binding signal (fold weaker than M/M) ([1]; none): 2.8 | binding signal (fold weaker than M/M) ([2]; none): 1.8

AGCGTGGGCGT / TACGCCCACGC [C/M]
binding signal (fold weaker than -KTS isoform) [3, 7]: 24 | binding signal (fold weaker than M/M) [1, 7]: 2 | binding signal (fold weaker than M/M) [2, 7]: 1.2

AGCGTGGGCGT / TACGCCCACGC [M/M]
binding signal (fold weaker than -KTS isoform) ([3]; 300 mM NaCl, 25-fold also printed (Fig 4C), 5mC at C3 and C9 of both strands): 24 | binding signal (fold stronger than C/C) [1, 8]: 2.8 | binding signal (fold stronger than C/C) [2, 8]: 1.8
